Common to all, as to assay: HPLC nucleotide assay
One data set concerns the target T1, AtAdk (Arabidopsis thaliana, UniProt Q9LZG0).
T1 construct: gene ADK2
The format is biochemical. The settings on record: phosphate donor; 10 mM adenosine, 20 mM MgCl2, Tris-HCl pH 8.0, 45 °C.

Substrate in data set [1]: Nc1ncnc2c1ncn2[C@@H]1O[C@H](COP(=O)(O)O)[C@@H](O)[C@H]1O
The format is biochemical, Lampropedia hyalina. The settings on record: polyP6 as phosphate donor, MgCl2, Tris-HCl pH 8.0, 37 °C (routine assay). The text has this:
HPLC nucleotide assay on LhPPK

Substrate in data set [2]: Nc1ncnc2c1ncn2[C@@H]1O[C@H](COP(=O)(O)OP(=O)(O)O)[C@@H](O)[C@H]1O
The format is biochemical, Sulfurovum lithotrophicum. Particulars: polyP6 as phosphate donor, MgCl2, Tris-HCl pH 8.0, 37 °C (routine assay). The text has this:
HPLC nucleotide assay on SlPPK

Broadly, the Km is the concentration of substrate that gives half-maximal velocity. The term Vmax denotes the rate approached at saturating substrate. As usually defined, the kcat is the maximal rate divided by the concentration of active sites. A word on the kcat/Km: it is the second-order rate constant that governs catalysis at low substrate concentration.

T1 sequence (Q9LZG0 whole entry): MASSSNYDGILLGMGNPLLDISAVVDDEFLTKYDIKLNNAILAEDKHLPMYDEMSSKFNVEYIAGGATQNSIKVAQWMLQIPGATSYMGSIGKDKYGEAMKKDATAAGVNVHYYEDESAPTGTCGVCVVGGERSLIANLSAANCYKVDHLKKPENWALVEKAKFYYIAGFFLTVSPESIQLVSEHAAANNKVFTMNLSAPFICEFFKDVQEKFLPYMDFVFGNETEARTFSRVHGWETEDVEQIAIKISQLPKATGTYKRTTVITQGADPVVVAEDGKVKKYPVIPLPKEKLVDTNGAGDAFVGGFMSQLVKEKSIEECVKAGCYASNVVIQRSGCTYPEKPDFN

Turning to `Nc1ncnc2c1ncn2[C@@H]1O[C@H](COP(=O)(O)OP(=O)(O)OP(=O)(O)O)[C@@H](O)[C@H]1O` [ATP], on AtAdk, the HPLC nucleotide assay entry is on record as “conversion of adenosine to AMP by AtAdk, which required ATP as a phosphate donor”.

B1: LhPPK (Lampropedia hyalina DSM 16112) (protein)
chain: MTRKESPPMEAFKKYRISPKNTLKDIDPSDKPFSFGTKKDELQRLDELAVELDDLQNTLYAGKRRKVLLILQGLDTSGKDGTIRWVFSRTSPLGVHVAAFKAPSERERAHDFLWRCHAVVPANGELTVWNRSHYEDVLVPPVEGWIDKAETQRRYGHINDFERLLSETGTTIVKCMLHISNEEQRERLQDRLKDPGKNWKFAADDLSTRAKWNDYQRAYEQALQATSTPHAPWYVIPANSKRHRNLMVAQLLVQTLRDMKLRLPPPNLAFKDLVVN
Consider B1, for which, in the data set “HPLC nucleotide assay [1]”, the Km came to 5.70 mM, the Vmax came out at 860 µM/min, the kcat stood at 92 s⁻¹ and the kcat/Km turned out to be 16100 M⁻¹ s⁻¹.

B2: SlPPK (Sulfurovum lithotrophicum) (protein)
chain: MKKNIYKKELYKLQVELVKFQKYVIEENVAVCLVLEGRDTAGKDGTIKRFTEHLSPREARTVALGVPSDKEKKSWYFQRYVPHLPSAGEIVFFNRSWYNRAGVEKVMGFCTKKQYKAFMEEVGSFEQMLTHSNIRFFKYYLDITKKEQKKRLEARKTDPLKQWKLSPIDAKAQKMWDAYSKARDDMFNKTSFIYAPWYVVHTDDKKEARINIMKHFLSLNDYPDKDKALLVYDHDVICKFDPVCYEKEMIAP
For the molecule B2, in “HPLC nucleotide assay [2]”, the Km turned out to be 0.61 mM, the Vmax was 1400 µM/min, the kcat was found to be 140 s⁻¹ and the kcat/Km is 230000 M⁻¹ s⁻¹.

(Values after PMC10992290, “In vitro biosynthesis of ATP from adenosine and polyphosphate” (Bioresources and Bioprocessing, 2021).)
